Source: patent publication US20180303913A1
Values joined by “and” are separate entries in the source; they are usually repeats but may differ in a detail not shown here. Equal values may be shown once.

T1: Flag-HA-ID2 (human) (UniProt Q02363)
T1 sequence: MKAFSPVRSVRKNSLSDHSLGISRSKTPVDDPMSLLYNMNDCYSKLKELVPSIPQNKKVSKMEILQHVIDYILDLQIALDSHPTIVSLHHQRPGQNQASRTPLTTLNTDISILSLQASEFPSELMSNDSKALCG


Biological target: T1, Flag-HA-ID2 (human)
Assay: tandem Flag/HA affinity purification of Flag-HA-ID2 complexes from NCI-H1299 cells, LC-MS/MS; CRAPome specificity score

Row | Calculated score [(#peptide*#xcorr)/(AveSC*MaxSC*Found# of Expt.)] | Molecule
1 | 0.000131 and 5.32e-05 | 78 kDa glucose-regulated protein (from UniProt P11021)
2 | 1.18e-05 | Elongation factor 1-alpha 2 (from UniProt Q05639)
3 | 1.1e-05 | GR75_HUMAN Stress-70 protein (from UniProt P38646)
4 | 4.5e-05 | Heat shock 70 kDa protein 1A/1B (from UniProt P0DMV8)
5 | 1.88e-05 | Heat shock cognate 71 kDa protein (NP_694881) (from UniProt P11142-2)
6 | 6.8e-07 | Protein arginine N-methyltransferase 5 (from UniProt O14744) (enzyme)
7 | 0.212 | RING finger protein 113A (from UniProt O15541)
8 | 23.8 | Transcription factor E2-alpha (from UniProt P15923)
9 | 1.25e-05 | Tubulin alpha-1B chain
10 | 7.15e-06 | Tubulin beta chain
11 | 7.39e-06 | heat shock 70 kDa protein 1-like (from UniProt P34931)
12 | 3.81e-06 | heat shock cognate 71 kDa protein isoform 1 (from UniProt P11142)
13 | 7.71 | transcription factor 12 isoform b (from UniProt Q99081)
14 | 1.79e-05 | tubulin beta-4B chain
15 | 0.0043 | Elongator complex protein 4 (protein) MAAVATCGSVAASTGSAVATASKSNVTSFQRRGPRASVTNDSGPRLVSIAGTRPSVRNGQLLVSTGLPALDQLLGGGLAVGTVLLIEEDKYNIYSPLLFKYFLAEGIVNGHTLLVASAKEDPANILQELPAPLLDDKCKKEFDEDVYNHKTPESNIKMKIAWRYQLLPKMEIGPVSSSRFGHYYDASKRMPQELIEASNWHGFFLPEKISSTLKVEPCSLTPGYTKLLQFIQNIIYEEGFDGSNPQKKQRNILRIGIQNLGSPLWGDDICCAENGGNSHSLTKFLYVLRGLLRTSLSACIITMPTHLIQNKAIIARVTTLSDVVVGLESFIGSERETNPLYKDYHGLIHIRQIPRLNNLICDESDVKDLAFKLKRKLFTIERLHLPPDLSDTVSRSSKMDLAESAKRLGPGCGMMAGGKKHLDF
